Among the data in article doi:10.1101/2024.03.09.584257 are stoichiometry N values, retold here.

The assay addresses ICP1 Cas1 (Vibrio cholerae phage ICP1_2011_A).

With ICP1 Cas1 (natural protein), the stoichiometry N (commonly the number of molecules, sites or subunits per partner or assembly) amounted to 2.
